The labels stand for the following.
B1: MLL5 (parent)
chain: TYLCERCQPRNLDKERAVLLQRRK
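Note: lentivirally expressed fusions sorted by FACS into six bins by GFP to DsRed ratio, PSI derived from sequencing read proportions per bin multiplied by bin number.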

The series covers variants of B1. In words: protein stability index of a GFP-peptide fusion (GPS, HEK-293T) (PSI 1-6); higher = more stable. Conditions: c terminus: a fixed tail appended.
For TYLCERCCPRNLDKERAVLLQRRK [Q8C], the protein stability index amounted to 1.38.
Regarding TYLCERCLPRNLDKERAVLLQRRK [Q8L], the protein stability index worked out at 1.93.
As for TYLCERCEPRNLDKERAVLLQRRK [Q8E], the figure is 2.42; as for TYLCERCRPRNLDKERAVLLQRRK [Q8R], 2.44.
TYLCERCMPRNLDKERAVLLQRRK [Q8M]: the protein stability index worked out at 1.67.
Turning to TYLCERCSPRNLDKERAVLLQRRK [Q8S], the protein stability index was determined as 1.14.
As for TYLCERDQPRNLDKERAVLLQRRK [C7D], the figure is 4.49; as for TYLCERSQPRNLDKERAVLLQRRK [C7S], 4.63.
TYLCERTQPRNLDKERAVLLQRRK [C7T]: the protein stability index worked out at 4.37.
Regarding TYLCERLQPRNLDKERAVLLQRRK [C7L], the protein stability index turned out to be 3.12.
As for TYLCEREQPRNLDKERAVLLQRRK [C7E], the figure is 4.89; as for TYLCERRQPRNLDKERAVLLQRRK [C7R], 4.03; as for TYLCERVQPRNLDKERAVLLQRRK [C7V], 3.32.
As for TYLCERPQPRNLDKERAVLLQRRK [C7P], the figure is 3.94; as for TYLCERAQPRNLDKERAVLLQRRK [C7A], 4.59; as for TYLCERMQPRNLDKERAVLLQRRK [C7M], 3.2.
For the variant TYLCERFQPRNLDKERAVLLQRRK [C7F], the protein stability index is 3.27.
Under TYLCERCQPRNLDKERAVLLQIRK [R22I] stands 2.44.
Under TYLCERCQPRNLDKERAVLLQMRK [R22M] stands 2.18; under TYLCERCQPRNLDKERAVLLQPRK [R22P], 2.9; under TYLCERCQPRNLDKERAVLLQVRK [R22V], 1.98.
Regarding TYLCERCQPRNLDKERAVLLQGRK [R22G], the protein stability index was 1.98.
Consider TYLCERCQPRNLDKERAVLLQNRK [R22N], for which the protein stability index came out at 1.99.
As for TYLCERCQPRNLDKERAVLLQCRK [R22C], the protein stability index is 2.08.
In the case of TYLCERCQPRNLDKERAVLLQTRK [R22T], the protein stability index turned out to be 2.1.
As for TYLCERCQPRNLDKERAVLLQRMK [R23M], the figure is 2.16; as for TYLCERCQPRNLDKERAVLLQRFK [R23F], 2.03; as for TYLCERCQPRNLDKERAVLLQRNK [R23N], 2.36.
On to TYLCERCQPRNLDKERAVLLQRGK [R23G], for which the protein stability index amounted to 2.1.
As for TYLCERCQPRNLDKERAVLLQRYK [R23Y], the figure is 1.48; as for TYLCERCQPRNLYKERAVLLQRRK [D13Y], 2.48.
As for TYLCERCQPRNLHKERAVLLQRRK [D13H], the figure is 2.64.
Take TYLCERCQPRNLKKERAVLLQRRK [D13K]: the protein stability index is 2.71.
As for TYLCERCQPRNLDKERVVLLQRRK [A17V], the figure is 2.42; as for TYLCERCQPRNLDKERSVLLQRRK [A17S], 2.32.
Regarding TYLCERCQPRNLDKERDVLLQRRK [A17D], the protein stability index was determined as 2.25.
Under TYLCERCQPRNLDKERFVLLQRRK [A17F] stands 2.07; under TYLCERCQPRNLDKERGVLLQRRK [A17G], 1.78.
On to TYLCERCQPRNLDKERWVLLQRRK [A17W], for which the protein stability index came to 2.16.
For the variant TELCERCQPRNLDKERAVLLQRRK [Y2E], the protein stability index was determined as 2.4.
On to TWLCERCQPRNLDKERAVLLQRRK [Y2W], for which the protein stability index stood at 2.76.
As for TTLCERCQPRNLDKERAVLLQRRK [Y2T], the figure is 2.41; as for TCLCERCQPRNLDKERAVLLQRRK [Y2C], 1.76; as for TGLCERCQPRNLDKERAVLLQRRK [Y2G], 2.78.
For TMLCERCQPRNLDKERAVLLQRRK [Y2M], the protein stability index is 2.53.
Take TDLCERCQPRNLDKERAVLLQRRK [Y2D]: the protein stability index amounted to 2.78.
Under TLLCERCQPRNLDKERAVLLQRRK [Y2L] stands 2.78; under TYLCERCQPRNLDKERAVLLKRRK [Q21K], 2.64.
Take TYLCERCQPRNLDKERAVLLVRRK [Q21V]: the protein stability index is 1.84.
Under TYLCERCQPRNLDKERAVLLRRRK [Q21R] stands 2.51; under TYLCERCQPRNLDKERAVLLGRRK [Q21G], 2.91.
As for TYLCERCQPRNLDKERAVLLDRRK [Q21D], the figure is 2.78.
TYLCERCQPRNLDKERAVLLIRRK [Q21I]: the protein stability index came out at 1.73.
Regarding TYLCERCQPRNLDKERAVLLTRRK [Q21T], the protein stability index is 1.81.
As for TYLCERCQPRALDKERAVLLQRRK [N11A], the figure is 2.05; as for TYLCERCQPRHLDKERAVLLQRRK [N11H], 2.82; as for TYLCERCQPRMLDKERAVLLQRRK [N11M], 2.04.
Take TYLCERCQPRTLDKERAVLLQRRK [N11T]: the protein stability index is 3.08.
As to TYLCERCQPRYLDKERAVLLQRRK [N11Y], the protein stability index came to 1.43.
As for TYLCERCQPRQLDKERAVLLQRRK [N11Q], the protein stability index is 2.41.
For the variant TYLCERCQPRPLDKERAVLLQRRK [N11P], the protein stability index stood at 2.18.
In the case of TYLCERCQPRILDKERAVLLQRRK [N11I], the protein stability index is 1.68.
As for TYLCENCQPRNLDKERAVLLQRRK [R6N], the figure is 2.81.
As for TYLCEDCQPRNLDKERAVLLQRRK [R6D], the figure is 2.93.
Consider TYLCEWCQPRNLDKERAVLLQRRK [R6W], for which the protein stability index was determined as 1.53.
Take TYLCEQCQPRNLDKERAVLLQRRK [R6Q]: the protein stability index came to 2.53.
As for TYLCEFCQPRNLDKERAVLLQRRK [R6F], the figure is 1.79; as for TYLCEHCQPRNLDKERAVLLQRRK [R6H], 1.87; as for TYLCEECQPRNLDKERAVLLQRRK [R6E], 3.87.
Regarding TYLCERCQPRNLDKERAVMLQRRK [L19M], the protein stability index worked out at 2.71.
As for TYLCERCQPRNLDKERAVVLQRRK [L19V], the figure is 1.96; as for TYLCERCQPRNLDKERAVCLQRRK [L19C], 2.03; as for TYLCERCQPRNLDKERAVKLQRRK [L19K], 2.18.
Turning to TYLCERCQPRNLDKERAVSLQRRK [L19S], the protein stability index was 2.9.
Consider TYLCERCQPRNLDKERAVFLQRRK [L19F], for which the protein stability index was 1.7.
For the variant TYLCERCQPRNLDKERAVTLQRRK [L19T], the protein stability index is 2.07.
As for TYLCERCQPRNLDKERAVRLQRRK [L19R], the figure is 2.52.
Under TYLCERCQPRNLDKERAVPLQRRK [L19P] stands 1.85; under TYLCERCQPRNLDKERAVQLQRRK [L19Q], 2.54; under TYLCERCQPRNLDKERAVDLQRRK [L19D], 2.42.
Under TYLCERCQPRNLDKERAVWLQRRK [L19W] stands 1.93.
For TYLCERCQPRNLDKERAVLCQRRK [L20C], the protein stability index came out at 2.3.
As for TYLCERCQPRNLDKERAVLAQRRK [L20A], the figure is 2.37; as for TYLCERCQPRNLDKERAVLHQRRK [L20H], 2.23; as for TYLCERCQPRNLDKERAVLTQRRK [L20T], 1.58.
With TYLCERCQPRNLDKERAVLGQRRK [L20G], the protein stability index turned out to be 2.52.
With TYLCERCQPRNLDKERAVLNQRRK [L20N], the protein stability index stood at 2.68.
Regarding TYLCERCQPRNLDKERAVLDQRRK [L20D], the protein stability index worked out at 3.55.
As for TYLCERCQPRNLDKERAVLPQRRK [L20P], the protein stability index amounted to 2.08.
For TYLCERCQPVNLDKERAVLLQRRK [R10V], the protein stability index is 2.17.
Under TYLCERCQPLNLDKERAVLLQRRK [R10L] stands 1.83.
Under TYLCERCQPSNLDKERAVLLQRRK [R10S] stands 2.44; under TYLCERCQPINLDKERAVLLQRRK [R10I], 2.25; under TYLCERCQPMNLDKERAVLLQRRK [R10M], 2.25.

The values are drawn from the supplement of paper PMC10567573.
